The target of test [1] is T1, recombinant human BACE1 (rhBACE1) (human, UniProt P56817 22-457, limits assumed). Briefly: cell-based or functional assay.
In test [2] the target is T1, recombinant human BACE1 (rhBACE1). In words: FP competition binding; 12 nM rhBACE1, competitor probe 5-TAMRA-BACE020. How it is done: BACE1 binding assays were carried out in a final volume of 10 μL per well in black 384-well microplates (Proxiplate-Plus; Perkin Elmer, Waltham, Mass.). […] The reaction was permitted to proceed towards equilibrium for 2 h at ambient temperature prior to fluorescence polarization measurement using Envision (Perkin Elmer). The parallel and perpendicular fluorescent emissions measured in each well at 595 nm (excitation 531 nm polarized light) were used to determine the milli-polarization level (mP) using the following formula: mP=1000*(S−G*P)/(S+G*P) where S=parallel emission, P=perpendicular emission and G=0.65.
The affinities of BACE1 peptide ligands were measured using the abovementioned competition binding FP assay for determining IC₅₀ values with serially diluted peptides. A Caliper assay was used to measure the inhibition of BACE1 enzymatic activity by peptide ligands.

Positions of bridges follow the written chain, without caps; N, C: chain ends. Non-standard residues stand in square brackets, D forms with d. Cit = NC(=O)NCCC[C@H](N)C(=O)O; Orn = NCCC[C@H](N)C(=O)O

T1 sequence (P56817 22-457 limits assumed): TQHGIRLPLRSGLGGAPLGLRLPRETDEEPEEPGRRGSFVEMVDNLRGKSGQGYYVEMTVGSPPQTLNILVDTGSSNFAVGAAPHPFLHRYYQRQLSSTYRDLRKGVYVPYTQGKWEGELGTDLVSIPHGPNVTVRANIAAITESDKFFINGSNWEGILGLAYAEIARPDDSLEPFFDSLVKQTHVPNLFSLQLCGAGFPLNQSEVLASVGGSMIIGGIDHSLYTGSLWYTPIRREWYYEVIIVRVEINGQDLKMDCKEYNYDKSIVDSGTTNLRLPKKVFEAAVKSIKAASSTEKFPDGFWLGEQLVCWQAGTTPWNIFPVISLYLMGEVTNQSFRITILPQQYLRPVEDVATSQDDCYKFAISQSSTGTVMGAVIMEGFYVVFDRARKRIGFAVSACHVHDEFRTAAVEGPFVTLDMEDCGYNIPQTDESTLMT

Ac-SGPYFIEYMSAV-NH2 (also called BACE10) [BACE010 (Ac-SGPYFIEYMSAV-NH2)]: the “Caliper (MCE) BACE1 activity assay, EC50 (rate increased)” value (“Caliper … (rate increased)” for short) in test [1] came to 2.2 µM. For the same molecule, the IC50 in test [2] was more than 10000 nM.

B1: BACE030 (peptide)
peptide: Ac-ESMYCRLLGIGCG-NH2
modifications: disulfide 5-12
SMILES: CC[C@H](C)[C@@H]1NC(=O)CNC(=O)[C@H](CC(C)C)NC(=O)[C@H](CC(C)C)NC(=O)[C@H](CCCNC(=N)N)NC(=O)[C@@H](NC(=O)[C@H](Cc2ccc(O)cc2)NC(=O)[C@H](CCSC)NC(=O)[C@H](CO)NC(=O)[C@H](CCC(=O)O)NC(C)=O)CSSC[C@@H](C(=O)NCC(N)=O)NC(=O)CNC1=O
notes: Minimal version of BACE020 with full activity
On to B1, for which the “Caliper (MCE) BACE1 activity assay IC50” value in test [1] was determined as 0.018 µM. In addition, in test [2], the IC50 was 23 nM.
The corresponding values for Ac-ESMYCKLLGIGCG-NH2 (disulfide 5-12 (inferred), also called BACE030 with Arg to lysine) [BACE058] are 0.074 µM and 486 nM.
Consider Ac-AEESMYCRLLGIGCG-NH2 (disulfide 7-14 (inferred), also called BACE020 position 1 to Ala) [BACE042], for which the “Caliper (MCE) BACE1 activity assay IC50” value in test [1] was determined as 0.012 µM. Besides, the IC50 in test [2] amounted to 31 nM.
Turning to Ac-NEESAYCRLLGIGCG-NH2 (disulfide 7-14 (inferred), also called BACE020 Met5 to Ala) [BACE046], the “Caliper (MCE) BACE1 activity assay IC50” value in test [1] came to 0.435 µM. Further, the half-inhibitory concentration (IC50) in test [2] amounted to 1570 nM.
Taken in the same sequence, the figures for Ac-NEESMYCRLAGIGCG-NH2 (disulfide 7-14 (inferred), also called BACE020 Leu10 to Ala) [BACE050] were 0.049 µM and 186 nM.
The corresponding values for Ac-NEESMYCRALGIGCG-NH2 (disulfide 7-14 (inferred), also called BACE020 Leu9 to Ala) [BACE049] are 1.38 µM and 7700 nM.
For the molecule Ac-NEESMYCRLLAIGCG-NH2 (disulfide 7-14 (inferred), also called BACE020 Gly11 to Ala) [BACE051], the “Caliper (MCE) BACE1 activity assay IC50” value in test [1] was found to be 0.018 µM. Also, the IC50 in test [2] was 36 nM.
The corresponding values for Ac-NEEHMYCRLLGIGCG-NH2 (disulfide 7-14 (inferred), also called BACE020 Ser4 to His) [BACE056] are 3.58 µM and 4500 nM.
The corresponding values for Ac-NAESMYCRLLGIGCG-NH2 (disulfide 7-14 (inferred), also called BACE020 Glu2 to Ala) [BACE043] are 0.013 µM and 41 nM.
As to Ac-NEESMYCRLLGIGCA-NH2 (disulfide 7-14 (inferred), also called BACE020 Gly15 to Ala) [BACE054], the “Caliper (MCE) BACE1 activity assay IC50” value in test [1] turned out to be 0.007 µM. The IC50 in test [2] was found to be 12 nM.
The corresponding values for Ac-NEEAMYCRLLGIGCG-NH2 (disulfide 7-14 (inferred), also called BACE020 Ser4 to Ala) [BACE045] are 0.304 µM and 2340 nM.
Taken in the same sequence, the figures for Ac-NEESMYCRLLGIACG-NH2 (disulfide 7-14 (inferred), also called BACE020 Gly13 to Ala) [BACE053] were 0.007 µM and 37 nM.
Taken in the same sequence, the figures for Ac-NEESMYCRLLGAGCG-NH2 (disulfide 7-14 (inferred), also called BACE020 Ile12 to Ala) [BACE052] were 0.014 µM and 39 nM.
In the case of Ac-NEASMYCRLLGIGCG-NH2 (disulfide 7-14 (inferred), also called BACE020 Glu3 to Ala) [BACE044], the “Caliper (MCE) BACE1 activity assay IC50” value in test [1] was determined as 0.046 µM. In test [2], the IC50 was 131 nM.
Taken in the same sequence, the figures for Ac-NEESMFCRLLGIGCG-NH2 (disulfide 7-14 (inferred), also called BACE020 Tyr6 to Phe) [BACE055] were 0.011 µM and 27 nM.
Taken in the same sequence, the figures for Ac-NEESMYCALLGIGCG-NH2 (disulfide 7-14 (inferred), also called BACE020 Arg8 to Ala mutant) [BACE048] were more than 10 µM and more than 10000 nM.
The corresponding values for Ac-NEESMACRLLGIGCG-NH2 (disulfide 7-14 (inferred), also called BACE020 Tyr6 to Ala) [BACE047] are 0.093 µM and 225 nM.
As to Ac-EESMYCRLLGIGCG-NH2 (disulfide 6-13 (inferred), N-terminal truncation of BACE020) [BACE029], in test [1], the “Caliper (MCE) BACE1 activity assay IC50” value worked out at 0.013 µM. Besides, the IC50 in test [2] came out at 12 nM.
The corresponding values for Ac-SMYCRLLGIGCG-NH2 (disulfide 4-11 (inferred), also called BACE31) [BACE031] are 1.28 µM and 2600 nM.

B2: BACE059 (peptide)
peptide: Ac-ESMYC[Orn]LLGIGCG-NH2
modifications: disulfide 5-12 (inferred)
notes: also called BACE030 with Arg to ornithine
B2: in test [1], the “Caliper (MCE) BACE1 activity assay IC50” value was found to be 0.222 µM. The IC50 in test [2] worked out at 512 nM.
As for Ac-KEESIYCRLMGLGCG-NH2 (disulfide 7-14 (inferred), also called BACE-18) [BACE018], in test [1], the “Caliper (MCE) BACE1 activity assay IC50” value is 0.054 µM and the “HTRF BACE1 activity assay IC50” value is 0.077 µM. Besides, the IC50 in test [2] amounted to 102 nM.

B3: BACE060 (peptide)
peptide: Ac-ESMYC[Cit]LLGIGCG-NH2
modifications: disulfide 5-12 (inferred)
notes: also called BACE030 with Arg to citrulline
Turning to B3, the “Caliper (MCE) BACE1 activity assay IC50” value in test [1] was 0.772 µM. For the same molecule, the IC50 in test [2] was found to be 2300 nM.
On to Ac-NELSPYCRLMGLGCD-NH2 (disulfide 7-14 (inferred), also called BACE-19) [BACE019], for which, in test [1], the “Caliper (MCE) BACE1 activity assay IC50” value turned out to be 0.015 µM and the “HTRF BACE1 activity assay IC50” value was 0.01 µM. The IC50 in test [2] was 10 nM.

B4: BMS2 (peptide)
peptide: Ac-ALYPYFLPISAK-NH2
notes: also called Peptide 2 of Kornacker et al
Consider B4, for which the “Caliper … (rate increased)” value in test [1] was determined as 26.4 µM. Also, the IC50 in test [2] was more than 10000 nM.

B5: BMS4 (peptide)
peptide: Ac-YPYFIPL-NH2
notes: also called Peptide 4 of Kornacker et al
Consider B5, for which the “Caliper … (rate increased)” value in test [1] stood at 1.76 µM. Further, the IC50 in test [2] was more than 10000 nM.

B6: BMS1 (peptide)
peptide: Ac-NLTTYPYFIPLP-NH2
notes: also called Peptide 1 of Kornacker et al
Take B6: in test [1], the “Caliper … (rate increased)” value is 0.227 µM. Also, the IC50 in test [2] was more than 10000 nM.

The values above are taken from patent US20140228277A1 (Genentech, published 2014).
